Test results from patent US20240327505A1 (published 2024).

Tests used:
[1] = target: SARS-CoV-2 "Epsilon" B.1.427/9 full-length Spike protein on pseudovirus (SARS-CoV-2, UniProt P0DTC2 14-1273); assay: cell-based or functional assay
[2] = target: SARS-CoV-2 "Gamma" Brazil P.1.B.1.1.28 full-length Spike protein on pseudovirus (SARS-CoV-2, UniProt P0DTC2 14-1273); assay: cell-based or functional assay
[3] = target: SARS-CoV-2 "Delta" B.1.617.2 full-length Spike protein on pseudovirus (SARS-CoV-2, UniProt P0DTC2 14-1273); assay: cell-based or functional assay
[4] = target: SARS-CoV-2 "Alpha" UK B.1.1.7 full-length Spike protein on pseudovirus (SARS-CoV-2, UniProt P0DTC2 14-1273); assay: cell-based or functional assay
[5] = target: SARS-CoV-2 "Beta" SA B.1.351 full-length Spike protein on pseudovirus (SARS-CoV-2, UniProt P0DTC2 14-1273); assay: cell-based or functional assay
[6] = target: SARS-CoV-2 "Delta-plus" B.1.617.2.1 full-length Spike protein on pseudovirus (SARS-CoV-2, UniProt P0DTC2 14-1273); assay: cell-based or functional assay
[7] = target: SARS-CoV-2 spike receptor-binding domain (RBD) (SARS-CoV-2, UniProt P0DTC2 319-541)

Binder | Pseudovirus Neturalization [1] | Pseudovirus Neturalization [2] | Pseudovirus Neturalization [3] | Pseudovirus Neturalization [4] | Pseudovirus Neturalization [5] | Pseudovirus Neturalization [6] | Kd [7] | kon [7]
AB-009281 (antibody, V domains shown) VH: EVQLVETGGGLIQPGGSLRLSCAASGFTVSSNYMSWVRQAPGKGLEWVSVIYSGGSTYYADSVKGRFTISRDNSKNTLYLQMNSLRAEDTAVYYCARDLYYYGMDVWGQGTTVTVSS VL: DIQLTQSPSFLSASVGDRVTITCRASQGISSYLAWYQQKPGKAPKLLIYAASTLQSGVPSRFSGSGSGTEFTLTISSLQPEDFATYYCQQLNSYPTFGQGTKVEIK | 0.041 µg/mL | > 50 µg/mL | 0.032 µg/mL | > 50 µg/mL | > 50 µg/mL | 2.29 µg/mL |  | 
AB-009271 (antibody, V domains shown) VH: EVQLVESGGGLIQPGGSLRLSCAASGFIVSSNYMSWVRQAPGKGLEWVSVIYSGGSTYYADSVKGRFTISRDNSKNTLYLQMNSLRAEDTAVYYCARDYGDFYFDYWGQGTLVTVSS VL: EIVMTQSPATLSVSPGERATLSCRASQSVSSNLAWYQQKPGQAPRLLIYGASTRATGIPARFSGSGSGTEFTLTISSLQSEDFAVYYCQQYYNWPRTFGQGTKVEIK | 0.028 µg/mL | > 50 µg/mL | 0.012 µg/mL | 0.275 µg/mL | > 50 µg/mL | > 50 µg/mL |  | 
AB-009614 (antibody, V domains shown) VH: QVQLVESGGGVVQPGRSLRLSCAASGFTFSSYGMHWVRQAPGKGLEWVAVISYDGSNKYYADSVKGRFTISRDNSKNTLYLQMNSLRAEDTAVYYCAKDQKYYDILTGYYRSTYYYYYYGMDVWGQGTTVTVSS VL: not shown | > 50 µg/mL | > 50 µg/mL | 31.3 µg/mL | > 50 µg/mL | > 50 µg/mL | > 50 µg/mL |  | 
AB-009270 (antibody, V domains shown) VH: QMQLVQSGPEVKKPGTSVKVSCKASGFTFTSSAMQWVRQARGQRLEWIGWIVVGSGNTNYAQKFQERVTITRDMSTSTAYMELSSLRSEDTAVYYCAVNYCSSTSCYDAFDIWGQGTMVTVSS VL: not shown | 0.032 µg/mL | 0.158 µg/mL | 0.03 µg/mL | 0.117 µg/mL | 0.169 µg/mL | 0.012 µg/mL |  | 
AB-010020 (antibody, V domains shown) VH: QMQLVQSGPEVKKPGTSVKVSCKASGFTFTSSAVQWVRQARGQRLEWIGWIVVGSGNTNYAQKFQERVTITRDMSTSTAYMELSSLRSEDTAVYYCAAPACSSTSCYDGFDIWGQGTMVTVSS VL: not shown | 0.003 µg/mL | 0.0114 µg/mL | 0.003 µg/mL | 0.013 µg/mL | 0.018 µg/mL | 0.001 µg/mL |  | 
AB-010021 (antibody, V domains shown, also called AB-0010021) VH: QMQLVQSGPEVKKPGTSVKVSCKASGFTFTSSAVQWVRQARGQRLEWIGWIVVGSGNTNYAQKFQERVTITRDMSTSTAYMELSSLRSEDTAVYYCAAVYCSGGSCLDAFDIWGQGTMVTVSS VL: not shown | 0.629 µg/mL | 5.39 µg/mL | 0.574 µg/mL | 2.69 µg/mL | 8.27 µg/mL | 0.078 µg/mL |  | 
AB-009346 (antibody, V domains shown) VH: EVQLVESGGGVVRPGGSLRLSCAASGFTFDDYGMSWVRQAPGKGLEWVSGINWNGGSTGYADSVKGRFTISRDNAKNSLYLQMNSLRAEDTALYYCARWPLLGISGYYHYYMDVWGKGTTVTVSS VL: QSALTQPRSVSGSPGQSVTISCTGTSSDVGGYNYVSWYQQHPGKAPKLMIYDVSKRPSGVPDRFSGSKSGNTASLTISGLQAEDEADYYCCSYAGSYTLLFGGGTKLIVL | 33.6 µg/mL | > 50 µg/mL | > 50 µg/mL | 0.114 µg/mL | > 50 µg/mL | > 50 µg/mL |  | 
AB-009613 (antibody, V domains shown) VH: EVQLVESGGGLIQPGGSLRLSCAASGFTVSSNYMSWVRQAPGKGLEWVSVIYSGGSTYYADSVKGRFTISRDNSKNTLYLQMNSLRAEDTAVYYCARDYGDFYFDYWGQGTLVTVSS VL: not shown | 1.16 µg/mL | > 50 µg/mL | 0.101 µg/mL | 7.23 µg/mL | > 50 µg/mL | > 50 µg/mL |  | 
AB-009610 (antibody, V domains shown) VH: QVQLVQSGAEVKKPGSSVKVSCKASGGTFSNYAISWVRQAPGQGLEWMGRIIPILGIANYAQKFQGRVTITADKSTSTAYMELSSLRSEDTAVYYCATTPYYYDSSGYYLDYWGQGTLVTVSS VL: not shown | > 50 µg/mL | > 50 µg/mL | > 50 µg/mL | 2.84 µg/mL | > 50 µg/mL | > 50 µg/mL |  | 
AB-009615 (antibody, V domains shown) VH: QVQLVESGGGVVQPGRSLRLSCAASGFTFSSYGMHWVRQAPGKGLEWVAVIWYDGSNKYYADSVKGRFTISRDNSKNTLYLQMNSLRAEDTAVYYCAKVGSPYCSGGSCYSGYFDYWGQGTLVTVSS VL: not shown | 38.4 µg/mL | > 50 µg/mL | > 50 µg/mL | > 50 µg/mL | > 50 µg/mL | > 50 µg/mL |  | 
AB-009620 (antibody, V domains shown) VH: QITLKESGPTLVKPTQTLTLTCTFSGFSLSTSGVGVGWIRQPPGKALEWLALIYWDDDKRYSPSLKSRLTITKDTSKNQVVLTMTNMDPVDTATYYCAHHEVATVFDYWGQGTLVTVSS VL: QSALTQPASVSGSPGQSITISCTGTSSDVGAYNYVSWYQQHPGKAPKLMIYEVSNRPSGVSNRFSGSKSGNTASLTISGLQAEDEADYYCSSYTSSSTVFGGGTKLTVL | 0.974 µg/mL | 0.327 µg/mL | 0.519 µg/mL | 0.257 µg/mL | 0.563 µg/mL | 0.809 µg/mL |  | 
AB-009661 (antibody, V domains shown) VH: QVQLVESGGGVVQPGRSLRLSCAASGFTFSSYGMHWVRQAPGKGLEWVAVISYDGSNKYYADSVKGRFTISRDNSKNTLYLQMNSLRAEDTAVYYCAKDYGDYGGMDVWGQGTTVTVSS VL: not shown | > 50 µg/mL | > 50 µg/mL | > 50 µg/mL | > 50 µg/mL | > 50 µg/mL | > 50 µg/mL |  | 
AB-009734 (antibody, V domains shown) VH: QVHLVQSGAEVKTPGASVRVSCKASGYTFTSHYMHWVRQAPGQGLEWMGLINPSGSGTAYPQHFQGRVTMTRDTSTTTDYMDLSSLRSEDTAMYFCARMERSGAFDLWGQGTMVTVSS VL: EIVLTQSPGTLSLSPGERATLSCRASQTISSRYLAWYYQKPGQAPRLLIQGSSIRATGIPDRFSGSGSGTDFTLTISRLEPEDFAVYYCQHYGSSPPMYTFGQGTKLEIK | > 50 µg/mL | 40.6 µg/mL | > 50 µg/mL | > 50 µg/mL | > 50 µg/mL | > 50 µg/mL |  | 
AB-009769 (antibody, V domains shown) VH: EVQLVESGGGLVQPGGSLRLSCAASGFTFSSYWMSWVRQAPGKGLEWVANIKQDGSEKYYVDSVKGRFTISRDNAKNSLYLQMNSLRAEDTAVYYCARSPEVLWFGDPVLDNWFDPWGQGTLVTVSS VL: SYELTQPPSVSVSPGQTARITCSGDALPKQYAYWYQQKPGQAPVLVIYKDSERPSGIPERFSGSSSGTTVTLTISGVQAEDEADYYCQSADSSGTYPVVFGGGTKLTVL | > 50 µg/mL | > 50 µg/mL | > 50 µg/mL | > 50 µg/mL | > 50 µg/mL | > 50 µg/mL |  | 
AB-009760 (antibody, V domains shown) VH: EVQLVQSGAEVKKPGESLKISCKGSGYSFTSYWIGWVRQMPGKGLEWMGIIYPGDSDTRYSPSFQGQVTISADKSISTAYLQWSSLKASDTAMYYCARSRSSDYFDYWGQGTLVTVSS VL: not shown | 14.1 µg/mL | 19.2 µg/mL | > 50 µg/mL | 17.7 µg/mL | > 50 µg/mL | 46.2 µg/mL |  | 
AB-009747 (antibody, V domains shown) VH: QVQLVESGGGVVQPGGSLRLSCAASGFTFSNYGMHWVRQAPGKGLEWVAFIRYDGSNEYYADSVKGRFTISRDNSKNTLYLHMNSLRPEDTAVYYCAKQGLLSNYYYGMDVWGQGTTVTVSS VL: not shown |  |  |  |  |  |  | 9.8 nM | 108000 M⁻¹ s⁻¹
